Laboratory results from patent US20200230168, “NUCLEIC ACID OLIGOMERS AND USES THEREFOR” (Queensland University of Technology, published 2020).

Assays:
[1] = biological target: T1, THOC4 (ALYREF) (UniProt Q86V81 Q86V81:2-257); assay: SPR; LSA_In3E3 = 1
[2] = biological target: T2, hSSB1 (Homo sapiens, UniProt Q9BQ15 Q9BQ15:1-211); assay: SPR; LSA_In3E3 = 1
[3] = biological target: T1, THOC4 (ALYREF); assay: SPR
[4] = biological target: T2, hSSB1; assay: SPR

T2 sequence (Q9BQ15 whole entry, one chain of several): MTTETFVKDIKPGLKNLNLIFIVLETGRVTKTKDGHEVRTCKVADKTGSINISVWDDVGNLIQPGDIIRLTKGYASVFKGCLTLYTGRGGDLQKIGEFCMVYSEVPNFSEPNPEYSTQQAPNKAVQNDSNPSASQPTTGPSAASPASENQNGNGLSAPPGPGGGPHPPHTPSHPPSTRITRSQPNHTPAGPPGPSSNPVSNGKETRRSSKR

Binder | binding signal [1] | binding signal [2] | binding signal [3] | binding signal [4]
UGAGCCGGACUU (ssRNA, 2'-OMe all, PS all) [In3E3 both-end truncation 12 nt] | 0.08 normalized Rmax | 0.2 normalized Rmax |  | 
AGCCGGAC (ssRNA, 2'-OMe all, PS all [2'-OMe at 1-8 (all); PS at all linkages]) [In3E3 both-end truncation 8 nt] | -0.07 normalized Rmax | 0.07 normalized Rmax |  | 
CCAGUGAGCCGG (ssRNA, 2'-OMe all, PS all) [In3E3 3' truncation 12 nt] | 0 normalized Rmax | 0.24 normalized Rmax |  | 
AGCCGGACUUGCCU (ssRNA, 2'-OMe all, PS all) [In3E3 5' truncation 14 nt] | 0.09 normalized Rmax | 0.3 normalized Rmax |  | 
CCAGUGAGCCGGACUUGCC (ssRNA, 2'-OMe all, PS all) [In3E3 3' truncation 19 nt] | 0.9 normalized Rmax | 0.68 normalized Rmax |  | 
CAGAGGCAGCAGUACGACGG (ssRNA, 2'-OMe all, PS three at each end) [LSA_ATG 2'-OMe PS ends (DKLS286198)] |  | 0.17 normalized Rmax |  | 
CAGAGGCAGCAGUACGACGG (ssRNA, PS all, no sugar modification) [LSA_ATG PS only (DKLS577569)] | 1.03 normalized Rmax | 1.44 normalized Rmax |  | 
CGUGUCAUCCGCUCUCGACU (ssRNA, 2'-OMe all, PS all) [LSA_In3E3_CT4] | 0.21 normalized Rmax | 0.8 normalized Rmax |  | 
GUGCAUGGAAUCACGGAGUG (ssRNA, PS all, no sugar modification) [Open_A PS only (DKLS669778)] | 0.76 normalized Rmax | 1.3 normalized Rmax |  | 
GUGCAUGGAAUCACGGAGUGGUGCAUGGAA (ssRNA, 2'-OMe all, PS all) [Open_A 30-mer (DKLS722361)] | 1.53 normalized Rmax | 4.08 normalized Rmax |  | 
CCAGUGAGCCGGAC (ssRNA, 2'-OMe all, PS all) [In3E3 3' truncation 14 nt] | 0.08 normalized Rmax | 0.35 normalized Rmax |  | 
GUGAGCCGGACUUGCCU (ssRNA, 2'-OMe all, PS all) [In3E3 5' truncation 17 nt] | 0.23 normalized Rmax | 0.83 normalized Rmax |  | 
CAGAGGCAGCAGUACGACGGCAGAGGCAGC (ssRNA, 2'-OMe all, PS all) [LSA_ATG 30-mer (DKLS428543)] | 1.21 normalized Rmax | 1.89 normalized Rmax |  | 
CCAGUGAGCCGGACU (ssRNA, 2'-OMe all, PS all) [In3E3 3' truncation 15 nt] | -0.09 normalized Rmax | 0.36 normalized Rmax |  | 
CCAGUGAGCCGGACUUGC (ssRNA, 2'-OMe all, PS all) [In3E3 3' truncation 18 nt] | 0.87 normalized Rmax | 0.67 normalized Rmax |  | 
GUGAGCCGGACUUG (ssRNA, 2'-OMe all, PS all) [In3E3 both-end truncation 14 nt] | 0.48 normalized Rmax | 0.45 normalized Rmax |  | 
CCAGUGAGCCGGACUUG (ssRNA, 2'-OMe all, PS all) [In3E3 3' truncation 17 nt] | 0.69 normalized Rmax | 0.59 normalized Rmax |  | 
CUCAUUCCUACCGACACCCC (ssRNA, 2'-OMe all, phosphodiester, ZEN at both ends) [Neg_C ZEN (DKLS789189)] | 0.03 normalized Rmax | 0.09 normalized Rmax |  | 
GAGCCGGACUUGCCU (ssRNA, 2'-OMe all, PS all) [In3E3 5' truncation 15 nt] | 0.45 normalized Rmax | 0.4 normalized Rmax |  | 
AGUGAGCCGGACUUGC (ssRNA, 2'-OMe all, PS all) [In3E3 both-end truncation 16 nt] | 0.68 normalized Rmax | 0.71 normalized Rmax |  | 
CCAGUGAGCUGGACUUGCCU (ssRNA, 2'-OMe all, PS all) [In3LSA_CU] | 0.54 normalized Rmax | 0.97 normalized Rmax |  | 

Binder | binding signal [1] | binding signal [2] | binding signal [3] | binding signal [4]
CCAGUGAG (ssRNA, 2'-OMe all, PS all [2'-OMe at 1-8 (all); PS at all linkages]) [In3E3 3' truncation 8 nt] | -0.05 normalized Rmax | 0.09 normalized Rmax |  | 
CCAGUGAGCC (ssRNA, 2'-OMe all, PS all) [In3E3 3' truncation 10 nt] | -0.01 normalized Rmax | 0.11 normalized Rmax |  | 
CCAGACAGCUGGUGUCGCCU (ssRNA, 2'-OMe all, PS all) [In3LSA_scr3_5] | 0.43 normalized Rmax | 0.75 normalized Rmax |  | 
CAGUGAGCCGGACUUGCCU (ssRNA, 2'-OMe all, PS all) [In3E3 5' truncation 19 nt] | 0.87 normalized Rmax | 0.92 normalized Rmax |  | 
AGUGAGCCGGACUUGCCU (ssRNA, 2'-OMe all, PS all) [In3E3 5' truncation 18 nt] | 0.84 normalized Rmax | 0.84 normalized Rmax |  | 
GCGGUGAACCGGAGUUGGCU (ssRNA, 2'-OMe all, full PS) [DKLS438994 (SEQ 66)] |  |  | 1.11 normalized Rmax | 1.03 normalized Rmax
CCGGUGAGCGACACUAGGCU (ssRNA, 2'-OMe all, PS all) [In3LSA_scr3_4] | 0.66 normalized Rmax | 0.77 normalized Rmax |  | 
GGAGGGAGUCGGACUUGUCU (ssRNA, 2'-OMe all, full PS) [DKLS444294 (SEQ 65)] |  |  | 1.78 normalized Rmax | 1.58 normalized Rmax
GGACUUGCCU (ssRNA, 2'-OMe all, PS all) [In3E3 5' truncation 10 nt] | -0.01 normalized Rmax | 0.07 normalized Rmax |  | 
CCAGUGAGCCGGACUU (ssRNA, 2'-OMe all, PS all) [In3E3 3' truncation 16 nt] | 0.38 normalized Rmax | 0.4 normalized Rmax |  | 
AGGCAAGUCCGGCUCACUGG (ssRNA, 2'-OMe all, PS all) [RevIn3LSA (DKLS481254)] | 0.76 normalized Rmax | 0.82 normalized Rmax |  | 
CCAGUGAGCCGGACUUGCCU (ssRNA, PS all, no sugar modification) [In3E3 PS only (DKLS426690)] | 1.06 normalized Rmax | 0.99 normalized Rmax |  | 
CUCAUUCCUACCGACACCCC (ssRNA, 2'-OMe all, phosphodiester) [Neg_C 2'-OMe PD (DKLS341370)] | 0.08 normalized Rmax | 0.37 normalized Rmax |  | 
CAGUGAGCCGGACUUGCC (ssRNA, 2'-OMe all, PS all) [In3E3 both-end truncation 18 nt] | 0.96 normalized Rmax | 0.91 normalized Rmax |  | 
CCAGUGAGCCGGA (ssRNA, 2'-OMe all, PS all) [In3E3 3' truncation 13 nt] | 0.08 normalized Rmax | 0.53 normalized Rmax |  | 
CAGAGGCAGCAGUACGACGG (ssRNA, 2'-OMe all, PS all) [LSA_ATG] | 0.96 normalized Rmax | 1.1 normalized Rmax |  | 
CCAGUGAGCCG (ssRNA, 2'-OMe all, full PS) [In3E3 3' truncation 11 nt] |  |  | -0.03 normalized Rmax | 0.15 normalized Rmax
CCGGACUUGCCU (ssRNA, 2'-OMe all, PS all) [In3E3 5' truncation 12 nt] | 0.07 normalized Rmax | 0.13 normalized Rmax |  | 
CCAGUGAGCCGGACUUGCCU (ssRNA, 2'-OMe all, phosphodiester, ZEN at both ends) [In3E3 ZEN (DKLS991101)] |  | 0.17 normalized Rmax |  | 
UGAGCCGGACUUGCCU (ssRNA, 2'-OMe all, PS all) [In3E3 5' truncation 16 nt] | 0.24 normalized Rmax | 0.48 normalized Rmax |  | 
CCAGUGAGCCGGACUUGCCU (ssRNA, 2'-OMe all, PS three at each end) [In3E3 2'-OMe PS ends (DKLS621499)] |  | 0.12 normalized Rmax |  | 
